Test results reported in the supplement of paper PMC7877785.
± gives the uncertainty stated by the source.

Experiment: self-splicing fitness, log relative to wild type (ln ratio); higher = more splicing; Tetrahymena group I intron in knt gene, E. coli kanamycin selection, DiMSum; sequences stand for … in CUCUCU…GGAGGGAAAAGUUAUCAGGCAUGCACCUGGUAGCUAGUCUUUAAACCAAUAGAUUGCAUCGGUUUAAAAGGCAAGACCGUCAAAUUGCGGGAAAGGGGUCAACAGCCGUUCAGUACCAAGUCUCAGGGGAAACUUUGAGAUGGCCUUGCAAAGGGUAUGGUAAUAAGCUGACGGACAUGGUCCUAACCACGCAGCCAAGUCCUAAGUCAACAGAUCUUCUGUUGAUAUGGAUGCAGUUCACAGACUAAAUGUCGGUCGGGGAAGAUGUAUUCUUCUCAUAAGAUAUAGUCGGACCUCUCCUUAAUGGGAGCUAGCGGAUGAAGUGAUGCAACACUGGAGCCGCUGGGAACUAAUUUGUAUGCGAAAGUAUAUUGAUUAGUUUUGGAGUACUCGUGGUCG
Method in brief: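 Pooled colonies went to amplicon sequencing on an Illumina HiSeq 2500 after six replicate transformations. The plates were LB agar with 100 μg/mL carbenicillin, 50 μM IPTG and 0.2% rhamnose, with or without 25 μg/mL kanamycin, incubated overnight at 37°C or 30°C. The E. coli BL21(DE3) library had all eight P1ex-region intron nucleotides randomised, the intron placed in the knt kanamycin-resistance gene on pET-22b(+). DiMSum fitness is the error-weighted combination of replicate fold changes, kanamycin against none, normalised to wild type.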

Sequence | self-splicing fitness (ln) (30 °C) | self-splicing fitness (ln) (37 °C)
CCCUAGCAAUAUUACGUGUA | -3.49 ± 0.25 | -2.94 ± 0.21
CCCUAGCAAUAUUACGUUCU | -4.33 ± 0.23 | -3.61 ± 0.19
CCCUAGCAAUAUUACGUUUC | -3.32 ± 0.17 | -2.24 ± 0.19
CCCUAGCAAUAUUACGUUUU | -3.59 ± 0.15 | -2.2 ± 0.14
CCGAAGCAAUAUUACGAAUA | -2.66 ± 0.24 | -2.49 ± 0.21
CCGAAGCAAUAUUACGACAG | -0.797 ± 0.098 | -0.282 ± 0.12
CCGAAGCAAUAUUACGAGAC |  | -2.52 ± 0.31
CCGAAGCAAUAUUACGAGUA | -2.42 ± 0.2 | -2.92 ± 0.23
CCGAAGCAAUAUUACGAUAU | -4.3 ± 0.35 | -3.21 ± 0.26
CCGAAGCAAUAUUACGCCGG |  | -2.21 ± 0.46
CCGAAGCAAUAUUACGCGAU | -3.78 ± 0.28 | -1.93 ± 0.33
CCGAAGCAAUAUUACGCUUU | -2.45 ± 0.15 | -3.33 ± 0.23
CCGAAGCAAUAUUACGGAGC | -1.9 ± 0.33 | -2.74 ± 0.44
CCGAAGCAAUAUUACGGAUU | -2.88 ± 0.27 | -3.15 ± 0.35
CCGAAGCAAUAUUACGGCAU | -4.19 ± 0.31 | -2.92 ± 0.23
CCGAAGCAAUAUUACGGCGA | -2.69 ± 0.3 | -2.53 ± 0.32
CCGAAGCAAUAUUACGUAUG | -0.869 ± 0.077 | 0.0157 ± 0.1
CCGAAGCAAUAUUACGUCCU |  | -1.89 ± 0.28
CCGAAGCAAUAUUACGUGUC | -3.49 ± 0.23 | -1.34 ± 0.16
CCGAAGCAAUAUUACGUUAU | -3.94 ± 0.32 | -2.87 ± 0.2
CCGAAGCAAUAUUACGUUUC | -3.56 ± 0.24 | -2.84 ± 0.19
CCGCAGCAAUAUUACGAACU | -1.92 ± 0.17 | 
CCGCAGCAAUAUUACGACGA | -0.105 ± 0.077 | -0.259 ± 0.084
CCGCAGCAAUAUUACGAGAA | -3.07 ± 0.28 | -2.24 ± 0.31
CCGCAGCAAUAUUACGAGCG | -2.4 ± 0.12 | -0.494 ± 0.11

Sequence | self-splicing fitness (ln) (30 °C) | self-splicing fitness (ln) (37 °C)
CCGCAGCAAUAUUACGAGGA | -3.51 ± 0.19 | -1.79 ± 0.13
CCGCAGCAAUAUUACGAGUU | -4.11 ± 0.22 | -2.56 ± 0.21
CCGCAGCAAUAUUACGCCAU | -3.66 ± 0.15 | -3.07 ± 0.19
CCGCAGCAAUAUUACGCCCG | -0.205 ± 0.11 | 0.732 ± 0.16
CCGCAGCAAUAUUACGCGUC | -3 ± 0.13 | -3.01 ± 0.23
CCGCAGCAAUAUUACGGCUG | -3.8 ± 0.29 | -2.45 ± 0.27
CCGCAGCAAUAUUACGGUGU | -3.97 ± 0.16 | -1.89 ± 0.14
CCGCAGCAAUAUUACGGUUG | -2.18 ± 0.066 | -1.24 ± 0.085
CCGCAGCAAUAUUACGUCCA | -2.28 ± 0.27 | 0.175 ± 0.2
CCGCAGCAAUAUUACGUCCG | -0.393 ± 0.084 | -0.499 ± 0.09
CCGCAGCAAUAUUACGUGCA | -3.71 ± 0.33 | -1.54 ± 0.14
CCGCAGCAAUAUUACGUGCU | -2.05 ± 0.27 | 
CCGCAGCAAUAUUACGUGGC | -3.29 ± 0.16 | -2.3 ± 0.2
CCGCAGCAAUAUUACGUUCG | -0.778 ± 0.056 | -0.0727 ± 0.077
CCGGAGCAAUAUUACGAAAG | -2.31 ± 0.11 | -1.05 ± 0.12
CCGGAGCAAUAUUACGAACU | -2.29 ± 0.31 | -0.657 ± 0.28
CCGGAGCAAUAUUACGACAA | -3.72 ± 0.43 | -2.16 ± 0.3
CCGGAGCAAUAUUACGCACG |  | -0.516 ± 0.21
CCGGAGCAAUAUUACGCCAC | -3.02 ± 0.49 | 0.445 ± 0.34
CCGGAGCAAUAUUACGCCUC |  | -2.47 ± 0.41
CCGGAGCAAUAUUACGCGGA | -3.34 ± 0.23 | -2.74 ± 0.29
CCGGAGCAAUAUUACGCGGG | -4.25 ± 0.39 | -2.25 ± 0.19
CCGGAGCAAUAUUACGGACA | -2.43 ± 0.42 | -2.97 ± 0.47
CCGGAGCAAUAUUACGGACG | -2.82 ± 0.19 | -1.31 ± 0.25
